The target of this test is RTQKEASI peptide (mammalian). Nature of the test: ELISA, peptide adsorbed to wells (10 mg/ml).

Consider Negative control (ELISA of Table 3), for which the OD came to 0.141 OD.
